Target: the molecule itself
Experiment: cross-linking

B1: IpgC (natural protein)
chain: MSLNITENESISTAVIDAINSGATLKDINAIPDDMMDDIYSYAYDFYNKGRIEEAEVFFRFLCIYDFYNVDYIMGLAAIYQIKEQFQQAADLYAVAFALGKNDYTPVFHTGQCQLRLKAPLKAKECFELVIQHSNDEKLKIKAQSYLDAIQDIKE
B1 was tested, and the “stoichiometry N” value was 2.
